Source: the supplement of paper PMC10724198
± gives the standard deviation of the averaged measurements.

test system: Saccharomyces cerevisiae; test: protein stability index of tFT-peptide fusion (C-terminal peptide) (PSI (0-1 scale)); higher = more stable (slower turnover); conditions: genetic background: wild type; temperature: 30 C
Experimental: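 Multiplexed protein stability (MPS) profiling in S. cerevisiae. Random 12-aa peptides (tFT-X12 library) are fused to the C-terminus of a sfGFP-mCherry tandem fluorescent timer, after mCherry and a GGGS linker. Cells are FACS-sorted into 8 mCherry/sfGFP bins and deep-sequenced. The protein stability index (PSI) is the read-weighted bin average, scaled from 0 (unstable) to 1 (stable). Only peptides with >10 reads are reported; cells were grown at 30 °C in SC-His with glucose.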
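Further: PSI is a weighted mean of sequencing reads over stability bins, variants kept only with over 10 reads, mCherry proximal and sfGFP distal, peptide attached via GGGS linker.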

In order of falling protein stability index:
1. GCGGGVCGWWDA  0.916 ± 0.12
2. GSANIDQEGVQY  0.781 ± 0.091
3. PSPPQLPAAPSP  0.779 ± 0.086
4. RSTPRPSSRDSL  0.7789 ± 0.006
5. QGIKKKKEKERR  0.768 ± 0.14
6. PVSSLPQTLLMF  0.758 ± 0.22
7. FPSFHLCNIPST  0.757 ± 0.076
8. GLGGRFSWVDGV  0.756 ± 0.012
9. LNSSGPGYGFPG  0.743 ± 0.05
10. LRSCLARGLFFG  0.7426 ± 0.0066
11. GTAFDGGELSEG  0.739 ± 0.045
12. PLRFSSFSFPGW  0.739 ± 0.13
13. GGVDNWKAIRGI  0.737 ± 0.043
14. AAREVSPGNVCH  0.731 ± 0.065
15. NKQKKDEKNKTE  0.73 ± 0.17
16. SACRVGKSILDT  0.728 ± 0.057
17. APDRGWAEGQCS  0.727 ± 0.018
18. RLVISPRSRPCP  0.725 ± 0.069
19. FDGRVTALRVRL  0.724 ± 0.033
20. FPPPLHFPPLPA  0.723 ± 0.055
21. LPRTALHSPSPY  0.723 ± 0.082
22. RRVRGGAAEKET  0.723 ± 0.1
23. VAGTLPFMEFTS  0.722 ± 0.023
24. SPPPPPVHPSSP  0.722 ± 0.019
25. GGSGAGRRGGGR  0.72 ± 0.03
26. PTLIPPPPPPGP  0.718 ± 0.059
27. IVTLPTNPYTPV  0.717 ± 0.046
28. RLRESMYPSSEE  0.717 ± 0.0085
29. IADDSSHGFRGE  0.7161 ± 0.0064
30. HAAWQHPNTTQV  0.714 ± 0.013
31. IATPQNPRRTKA  0.714 ± 0.045
32. PWRLFVTSGSPA  0.714 ± 0.048
33. RVWRLIGFHVSS  0.713 ± 0.012
34. EEREGPVGKGGG  0.708 ± 0.044
35. DAGRETGRLVGG  0.708 ± 0.032
36. IKEITKENNRNE  0.708 ± 0.083
37. PLRTRESIGARG  0.707 ± 0.038
38. KDGGRLRVDQWI  0.706 ± 0.076
39. PDRYPPPPGRRG  0.704 ± 0.014
40. SGPGPGAVGATC  0.702 ± 0.057
41. PPSPAPSPPRPL  0.702 ± 0.021
42. FPHRHAPYPSAI  0.7 ± 0.035
43. INKKKKKKSKQK  0.7 ± 0.089
44. RLSCCKCRGGAV  0.6979 ± 0.0042
45. SFADFVFMDHCA  0.696 ± 0.062
46. IVADKSPLSSPP  0.6947 ± 0.0017
47. GYHRGLSHVLED  0.694 ± 0.018
48. TKPTRPVSPTHL  0.693 ± 0.12
49. SVKTGAAKDRLE  0.6929 ± 0.003
50. HIGDLRDSCFIS  0.693 ± 0.031
51. VGLEVGPLVGGE  0.6921 ± 0.0029
52. PSLVGRVWLEFV  0.691 ± 0.061
53. LVVSITGRFRRF  0.69 ± 0.03
54. PPPLPRHLRAPP  0.689 ± 0.018
55. SLALVATWCGYR  0.688 ± 0.052
56. CGHMSTSNANLS  0.687 ± 0.051
57. GVGFRVVRTSGR  0.6859 ± 0.0018
58. KKKKKSEIPKIT  0.686 ± 0.084
59. GWLGFVGGVRVQ  0.685 ± 0.0063
60. TRPTPTRADCFG  0.685 ± 0.026
61. PPSPPPPPPPPP  0.6847 ± 0.0032
62. WALRADGGERTG  0.684 ± 0.021
63. PRLPLPPPPLPL  0.683 ± 0.026
64. AASPHHPSQTAL  0.6831 ± 0.0063
65. LCCPVFFAFCFP  0.683 ± 0.094
66. IRGYSVKRIRED  0.683 ± 0.045
67. PCHSPATRTLPC  0.6824 ± 0.0025
68. PTPTTSPASRQN  0.682 ± 0.023
69. GGLGDIHSDDVE  0.681 ± 0.019
70. PPPPPPPLPPFT  0.681 ± 0.015
71. VGELCGVGGRGG  0.68 ± 0.13
72. PAKTEPGPLNHR  0.68 ± 0.02
73. PPSPRHPAPQPR  0.679 ± 0.026
74. KLREKKLLKIAE  0.679 ± 0.042
75. VFRSRTSSLFTP  0.6794 ± 0.0058
76. ALGHAKDSVYGM  0.679 ± 0.041
77. GRLRLDAAGCMW  0.675 ± 0.048
78. APSLLAPPPLRP  0.674 ± 0.017
79. PQTPQTSTQAPG  0.673 ± 0.01
80. SVVSLLCQFLLG  0.673 ± 0.13
81. KKNERKEKNNTN  0.673 ± 0.014
82. IGCEVLQCRCVD  0.672 ± 0.014
83. QKSCHIADGREL  0.671 ± 0.022
84. VRVGVGGVSEFE  0.67062 ± 0.00015
85. GSSRRWPGGRTI  0.671 ± 0.073
86. CPPPFLCSPFVA  0.669 ± 0.022
87. TVIKMEKKKDGG  0.6691 ± 0.0047
88. KKKKKKKRNGAP  0.667 ± 0.05
89. PGPHGVVPTGNE  0.6666 ± 0.0056
90. AWCGGVVGVAWL  0.6661 ± 0.0062
91. ADMLETFSVHLG  0.666 ± 0.011
92. PSTLLTFAISIP  0.666 ± 0.045
93. FPATSTCTFALY  0.665 ± 0.0012
94. MPLPRQTSAPRP  0.665 ± 0.019
95. LSLAPPPLLHHL  0.664 ± 0.02
96. PPFPARPRPHPV  0.6623 ± 0.0056
97. ARKCPLLYGPMA  0.662 ± 0.04
98. DPQQRSNPKPII  0.661 ± 0.032
99. RVYKCNMKNNSK  0.661 ± 0.018
100. KKELKKRNKAKK  0.66 ± 0.012
101. TQYMRVVQAKPD  0.659 ± 0.055
102. TGIDLPHFVSLF  0.658 ± 0.088
103. QDLIVENGSVSG  0.655 ± 0.009
104. PPPPSHPSPPPP  0.654 ± 0.021
105. RCEWRGSCWGGE  0.653 ± 0.062
106. VYVEMWGTSENW  0.653 ± 0.011
107. AVCSLLVYAPDR  0.652 ± 0.059
108. PLPPDPPCPPPP  0.651 ± 0.072
109. TPAMPRNPTDDS  0.651 ± 0.0068
110. FFSPSSVSVGVR  0.65 ± 0.076
111. QKQINQKKRTMK  0.649 ± 0.055
112. SPPPASDHPNPL  0.648 ± 0.063
113. PDPSTRASDRKR  0.648 ± 0.017
114. ASPFCRPNRHLL  0.648 ± 0.031
115. KKKRMKIKCIGI  0.647 ± 0.063
116. PARPEPPRANWR  0.647 ± 0.058
117. GPTPPRSPPAVS  0.646 ± 0.055
118. LRSLRFALFPPA  0.642 ± 0.083
119. LPTSSTRVEFSV  0.638 ± 0.045
120. SLSHSPSPPPPT  0.638 ± 0.0084
121. RALCGWFAKRMI  0.637 ± 0.035
122. SMKAYRTLKTRL  0.636 ± 0.075
123. GVGWPGVGAGGG  0.635 ± 0.05
124. FCLLSCDTFSSS  0.6318 ± 0.0042
125. GGGARGGGGWGG  0.631 ± 0.097
126. GVREGCRGGVGA  0.625 ± 0.052
127. KTRKKEKKPSRK  0.6233 ± 0.0036
128. RGCSAVEKARPC  0.622 ± 0.0067
129. RCGPPTAPSLDP  0.619 ± 0.008
130. GPPPLRLWPLPV  0.618 ± 0.079
131. GGILNLCVTSLC  0.617 ± 0.022
132. ALAYSLQRSPRV  0.616 ± 0.045
133. TSGTPSRTHTLR  0.612 ± 0.025
134. KWMKKIKTRRQI  0.609 ± 0.018
135. KLGLLKVRVCDG  0.608 ± 0.0061
136. QSYRGIGFRTTM  0.607 ± 0.049
137. SRISSGKFTGAV  0.601 ± 0.041
138. SGPTFRWAGVLC  0.593 ± 0.014
139. PPSPPPPPRPPP  0.583 ± 0.019
140. LKSSREKRDMIG  0.578 ± 0.019
141. RFSMVVVERYSC  0.577 ± 0.0062
142. LCFRSLFLCSLF  0.577 ± 0.13
143. SYVYMIQRANAV  0.5609 ± 0.004
144. ARRRINKKIKKV  0.554 ± 0.018
145. ALLFCVCCGFFF  0.541 ± 0.013
146. VYNLHRGLFLSL  0.512 ± 0.0097
